B1: SlLHCA probe (dsDNA)
DNA 1: CAAATTGGTGACAACGTACATTCTGGCA
DNA 2: TGCCAGAATGTACGTTGTCACCAATTTG
B2: SlLHCA-m probe (dsDNA)
DNA 1: CAAATTGGTGACATTTTACATTCTGGCA
DNA 2: TGCCAGAATGTAAAATGTCACCAATTTG
B3: SlLHCB-m probe (dsDNA)
DNA 1: CTGCTTAGTTGTTTTTCTTGTAATCCTC
DNA 2: GAGGATTACAAGAAAAACAACTAAGCAG
B4: SlCYCB probe (dsDNA)
DNA 1: ACGTGTTTATTTTTTACTTTAAGAACGTG
DNA 2: CACGTTCTTAAAGTAAAAAATAAACACGT
B5: SlCYCB-m probe (dsDNA)
DNA 1: ACGTGTTTATTTTTTACTTTAAGATTTTG
DNA 2: CAAAATCTTAAAGTAAAAAATAAACACGT
B6: SlLHCB probe (dsDNA)
DNA 1: CTGCTTAGTTGTACGTCTTGTAATCCTC
DNA 2: GAGGATTACAAGACGTACAACTAAGCAG

Biological target: T1, SlHY5 (Solanum lycopersicum, UniProt Q9SM50 1-158)
T1 sequence: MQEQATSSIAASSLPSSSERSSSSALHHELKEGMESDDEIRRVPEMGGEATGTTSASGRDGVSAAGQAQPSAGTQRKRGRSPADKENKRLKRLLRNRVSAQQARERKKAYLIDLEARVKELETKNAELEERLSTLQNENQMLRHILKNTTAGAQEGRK
Assay: EMSA; LightShift Chemiluminescent EMSA kit (Thermo 20148); buffer, salt, pH and temperature not stated
Conditions: protein: recombinant, tags: His, chain copies: 2, blunt

| Binder | binding result |
| --- | --- |
| B1 | binds |
| B2 | no binding |
| B3 | no binding |
| B4 | binds |
| B5 | no binding |
| B6 | binds |
